Test results from US20140322163A1.
Positions count from the first letter of the chain named. Names and notes keep the numbering of the source.

B1: VRC07 G54H heavy chain complemented with VRC01 light chain (antibody, V domains shown)
VH: QVRLSQSGGQMKKPGDSMRISCRASGYEFINCPINWIRLAPGKRPEWMGWMKPRHGAVSYARQLQGRVTMTRDMYSETAFLELRSLTSDDTAVYFCTRGKYCTARDYYNWDFEHWGQGTPVTVSS
VL: EIVLTQSPGTLSLSPGETAIISCRTSQYGSLAWYQQRPGQAPRLVIYSGSTRAAGIPDRFSGSRWGPDYNLTISNLESGDFGVYYCQQYEFFGQGTKVQVDI
B2: VRC07 G54W heavy chain complemented with VRC01 light chain (antibody, V domains shown)
VH: B1 VH with H55W
VL: B1 VL

Molecular target: HIV-1 Env-pseudoviruses (neutralization panels)
Assay: cell-based or functional assay

Binder | fold improvement of neutralization over wild type VRC07 (IC50), six-virus panel, TZM-bl [fold] | fold improvement of neutralization over wild type VRC07 (IC80), six-virus panel, TZM-bl [fold] | fold increase of neutralization over VRC01 [fold] | fold increase of neutralization over VRC07 [fold] | fold increase of neutralization potency compared to VRC07 heavy chain with VRC01 light chain [fold] | fold increase of neutralization potency over VRC01 [fold] | fold increase of neutralization potency over VRC07 [fold] | neutralization potency relative to VRC07, panel of 7-12 HIVs [fold] | neutralization potency relative to mature VRC01, panel of 7-12 HIVs [fold]
B1 | 2.3 | 2.5 | 7 | 2.5 | > 2 |  |  |  | 
B2 |  |  |  |  |  | 13 | 4.8 | > 2 | > 8
